The values below are quoted from earlier work in patent US20050176623A1, “Non-invasive treatment of disease using amphipathic compounds” (priority 2004, published 2005).

The conditions of this series: fractional catabolic rate, kidney.

For the substance apolipoprotein A-I [apoA-I], the “normal clearance of apoA-I” value was “approximately 0.3 pools/day”.
